These results are taken from patent US20240342322A1 (NETRIS PHARMA, published 2024).

In this test the target is T1, recombinant human netrin-1 (R&D) (human, UniProt O95631 25-604, limits assumed).
T1 construct: Bought recombinant protein; also called h-netrin-1; human recombinant netrin-1
The test is described as follows: bio-layer interferometry. (In general: BLI is a label-free optical method that tracks binding on a fibre tip over time.)

B1: recombinant human Vitronectin (other, UniProt P04004 20-478, looked up)
chain: DQESCKGRCTEGFNVDKKCQCDELCSYYQSCCTDYTAECKPQVTRGDVFTMPEDEYTVYDDGEEKNNATVHEQVGGPSLTSDLQAQSKGNPEQTPVLKPEEEAPAPEVGASKPEGIDSRPETLHPGRPQPPAEEELCSGKPFDAFTDLKNGSLFAFRGQYCYELDEKAVRPGYPKLIRDVWGIEGPIDAAFTRINCQGKTYLFKGSQYWRFEDGVLDPDYPRNISDGFDGIPDNVDAALALPAHSYSGRERVYFFKGKQYWEYQFQHQPSQEECEGSSLSAVFEHFAMMQRDSWEDIFELLFWGRTSAGTRQPQFISRDWHGVPGQVDAAMAGRIYISGMAPRPSLAKKQRFRHRNRKGYRSQRGHSRGRNQNSRRPSRATWLSLFSSEESNLGANNYDDYRMDWLVPATCEPIQSVFFFSGDKYYRVNLRTRRVDTVDPPYPRSIAQYWLGCPAPGHL
notes: also called h-Vitronectin
B1: the binding result is on record as “binds”.
